Measurements: patent publication US20030087319A1 (published 2003)

T1: recombinant active caspase-3 (PharMingen) (UniProt P42574 29-277, limits assumed)
T1 sequence (looked up): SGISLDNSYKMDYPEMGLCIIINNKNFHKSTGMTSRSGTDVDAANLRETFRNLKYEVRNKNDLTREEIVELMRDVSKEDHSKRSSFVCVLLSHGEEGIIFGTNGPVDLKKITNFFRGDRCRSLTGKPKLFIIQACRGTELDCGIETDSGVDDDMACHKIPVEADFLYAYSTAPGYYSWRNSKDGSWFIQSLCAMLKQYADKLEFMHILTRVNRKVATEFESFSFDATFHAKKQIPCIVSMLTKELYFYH


Assays:
[1] = target: T1, recombinant active caspase-3 …; assay: in vitro binding, 35S-labeled protein with recombinant active caspase, immunoprecipitation with caspase-specific antibodies, autoradiography
Protocol: Binding between livin and caspases was tested by incubating ³⁵[S]-methionine-labeled livin with recombinant active caspase-3 and -7, immunoprecipitating with caspase specific antibodies, resolving on SDS-PAGE and visualising by autoradiography. Both caspase-3 and -7 interacted with livin, but not with the deletion mutant DC89 used as a negative control. Survivin, which was previously shown to interact with these caspases using whole cell lysates (Tamm et al., ibid), also bound to both caspases in this in vitro assay.
In vitro binding reactions were performed by combining recombinant active caspase-3 or -7 (PharMingen, San Diego, Calif.) with ³⁵[S]-methionine-labeled survivin or livin (wild-type and the three deletion mutants described herein), prepared using the TNT T7 reticulocyte lysate system (Promega Corp., Madison, Wis.). Samples were incubated with polyclonal antibodies against either caspase-3 or -7 (PharMingen, San Diego, Calif.) in 0.5 ml NETN buffer [20 mM Tris (pH 8.0), 100 mM NaCl, 1 mM EDTA, and 0.2% NP-40] for 1.5 hrs at 4° C. followed by protein G sepharose (Amersham Pharmacia Biotech, Piscataway N.J.) for 30 min. All samples were then washed three times in NETN buffer, boiled in Laemmli buffer, and resolved by 4-20% SDS-PAGE. […]

[2] = target: DEVD-cleaving caspases (caspase-3, -6, -7, -8, and -10); assay: cell-based or functional assay

binding result [1] | decrease in caspase activity (DEVD-AFC cleavage) in HeLa cells treated with TNF-a and cycloheximide [2] [%] | Binder
no binding | – | livin deletion mutant DC89 (other, 35[S]-methionine-labeled, also called DC86; NH2-terminal fragment (amino acids 1-86); not shown: myc-His tag from the vector pcDNA3.1/myc-His) MGPKDSAKCLHRGPQPSHWAAGDGPTQERCGPRSLGSPVLGLDTCRAWDHVDGQILGQLRPLTEEEEEEGAGATLSRGPAFPGMGS
– | 15 to 20 | livin expressed from pcDNA3.1/V5/His-TOPO-livin in transfected HeLa cells, Q96CA5 1-298 (protein, not shown: small tags and cut ends) MGPKDSAKCLHRGPQPSHWAAGDGPTQERCGPRSLGSPVLGLDTCRAWDHVDGQILGQLRPLTEEEEEEGAGATLSRGPAFPGMGSEELRLASFYDWPLTAEVPPELLAAAGFFHTGHQDKVRCFFCYGGLQSWKRGDDPWTEHAKWFPSCQFLLRSKGRDFVHSVQETHSQLLGSWDPWEEPEDAAPVAPSVPASGYPELPTPRREVQSESAQEPGARDVEAQLRRLQEERTCKVCLDRAVSIVFVPCGHLVCAECAPGLQLCPICRAPVRSRVRTFLS
